# Data published in patent publication US12686723 (SHANGHAI ACEMAB, dated 2026).
# Where a chain is given by its changes, count along the chain named.
# T1: commercial recombinant human BCMA protein (Fc tag, Cat. No. CS79, Novoprotein) (human, UniProt Q02223 1-54)
# T1 construct: Bought reagent; also called Human recombinant BCMA protein; BCMA antigen (Novoprotein cat: CS79); not shown: Fc tag
# T1 sequence (looked up): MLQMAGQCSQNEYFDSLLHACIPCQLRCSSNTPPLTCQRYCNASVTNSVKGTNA
# T2: human BCMA antigen (6His tag, product number CC28, Novoprotein) (human, UniProt Q02223 1-54)
# T2 construct: Bought reagent; not shown: 6His tag
# T2 sequence (looked up): T1 sequence (looked up)
# B1: anti-human BCMA monoclonal antibody 18D10 (antibody, human IgG1, kappa, V domains shown)
# VH: EVRLVESGGGLVQPGRSLRLSCAASGFTSNDYAMHWVRQAPGRGLEWVSGISWNSDSIGYADSVKGRFTISRDNAKNSLYLQMNSLRTEDTALYYCATVVSAYFDYWGQGTLVTVSS
# VL: DIQMTQSPSSLSASVGDRVTITCRTSQSISTYLNWYQQKPGKAPKLLIYAASSLKSGVPSRFSGSGSGTDFTLTISSLQPEDFATYFCQGSYIIPLTFGGGTRVEIKR
# notes: Tested as hybridoma supernatant (ELISA) or Protein G-purified hybridoma antibody (SPR); constant region of the tested hybridoma material is uncertain (anti-mouse IgG secondary used)
# B2: anti-human BCMA monoclonal antibody 15A7 (antibody, human IgG1, kappa, V domains shown)
# VH: EVQLVESGGGLVQPGGSLRLSCEASGFTFDDCAMHWVRQTPGKGLEWVSGISWNSDTMGYADSVKGRFIISRDNAKNSLYLQMNSLRVEDTALYHCTRVRAAVFDYWGQGVLVTVSS
# VL: DIHMTQSPSSLSASVGDRVTITCRASQSISSYLNWFQQKPGKAPTVLIYAASSLQSGVSSRFSGRGSGADFTLTISSLQPEDFASYFCQQSFSPLYIFGQGTKVEIKR
# notes: as for B1
# B3: anti-human BCMA monoclonal antibody 23C4 (antibody, human IgG1, kappa, V domains shown)
# VH: EVQLVESGGGLVQPGRSLRLSCAASGFTFADHAMHWVRQAPGKGLEWVSGISWNSDHIGYADSVKGRFTISRDNAKNSLYLQMNSLRPEDTALYYCAKDIFSPTGDGYWGQGTLVTVSS
# VL: DIQMTQSPSSLSASVGDRVTITCRASQDIRNNLGWFQQKPGKTPKRLIYAASSLQSGVPSRFSGSGSGTEFTLIISSLQPEDFATYYCLHHNSYPPTFGQGTKVEIKR
# notes: as for B1
# B4: anti-human BCMA monoclonal antibody 27A7 (antibody, human IgG1, kappa, V domains shown)
# VH: B3 VH with A30D, D56V, P88A, G107D
# VL: B3 VL with I74T
# notes: as for B1
# B5: anti-human BCMA monoclonal antibody 7E11 (antibody, human IgG1, kappa, V domains shown)
# VH: EVQLVESGGGLVQPGGSLRLSCAASGFTFSYYDMHWVRQGTGKGLEWVSGIGTSGDTYYPDSVKGRFTISRENAKNSLNLQMNSLRDGDTAMYYCARGPYYYNSSGYYSYDALDIWGQGTMVTVTS
# VL: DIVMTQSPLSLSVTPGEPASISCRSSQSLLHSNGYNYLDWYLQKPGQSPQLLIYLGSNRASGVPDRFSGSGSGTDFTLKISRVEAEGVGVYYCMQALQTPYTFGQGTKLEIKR
# notes: Tested as hybridoma supernatant (ELISA) or Protein G-purified hybridoma antibody (SPR)
# B6: anti-human BCMA monoclonal antibody 20A9 (antibody, human IgG1, kappa, V domains shown)
# VH: QVQLVQSGAEVKKPGASAKVSCKASGYTFTSYAMQWVRQAPGQRLEWMGWINAGNGNIKYSQKFQGRVTITRDTSASTAYMELSSLRSEDTAVYYCARGGRLELDVYYYFYYMDVWGKGTTVTVSS
# VL: DIVMSQSPDSLAVSLGERTTINCKSSQSVLHSSQNKNYLAWYQQKPGQPPNPLIHWASTRESGVPDRFSGSGSGTDFTLTISSLQAEDVAVYYCQQYYRVPFTFGPGTKVDIKR
# notes: as for B1
# B7: anti-human BCMA monoclonal antibody 15H6 (antibody, human IgG1, kappa, V domains shown)
# VH: B6 VH with I58T, V106I
# VL: B6 VL
# notes: as for B1
# B8: anti-human BCMA monoclonal antibody 11G1 (antibody, V domains shown)
# VH: EVQLVESGGGLVQPGRSLRLSCEASGFTFDDYAMHWVRQPPGKGLEWVSGISWNSDNIGYADSVKGRFTISRDNAKNSLYLQMNSLRAEDTALYYCAKIQSGSSFDYWGQGTLVTVSS
# VL: DIQMTQSPSSLSASVGDRVTITCRASQSIINFLNWYQQKPGKAPKLLIYGASNLQSGVPSRFSGSGSGTDFTLTISSLQPEDFATYCCQQSSSIPLTFGGGTKVEIKR
# notes: as for B1
# B9: anti-human BCMA monoclonal antibody 11B10 (antibody, human IgG1, kappa, V domains shown)
# VH: QVQLVQSGAEVKKPGASVKVSCKASGYTFTSYAMHWVRQAPGQRLEWMGWINTGNGNTKYSQKFQGRVTITRDTSASTAYMELSSLRSEDTAVYYCARGGSITGNIFYYYYYMDVWGKGTTVTVAS
# VL: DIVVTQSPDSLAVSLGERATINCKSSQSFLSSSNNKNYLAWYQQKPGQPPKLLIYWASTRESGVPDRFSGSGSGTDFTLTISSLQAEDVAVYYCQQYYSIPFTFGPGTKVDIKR
# notes: as for B1
# B10: anti-human BCMA monoclonal antibody 31F5 (antibody, V domains shown)
# VH: EVQLVESGGGLVQPGRSLRLSCAASGFTFDDYAMHWVRQAPGKGLEWVSGISWNSDNIAYADSVKGRFTISRDNAENSLYLQMNSLRTEDTAIYYCAKVAAATFDYRGQGTLVTVSS
# VL: DIQMTQSPSSLSASVGDRVTITCRASQSISSYLNWYQQKPGKAPKLLIFAASSLQSGVPSRFSGSGSGTDFTLTISSLQPEDFATYSCQQSFSIPFTFGPGTKVDIKR
# notes: as for B1
# B11: anti-human BCMA monoclonal antibody 20A2 (antibody, human IgG1, kappa, V domains shown)
# VH: QIQLVQSGAEVKKPGASVKVSCKASGYTFTAYYLHWVRQSPGHGLEWMGRIYPNSGDTNYAQKFQGRVTMTRDTSINTAYMELSRLRSDDTALYYCARGFNWNYEGGFDIWGQGTMVTVSS
# VL: DVVMTQSPLSLSVTLGQPASISCRSGQSLVYSDGNTYLNWFQQRPGQSPRRLIYKLSSRDSGVPDRFSGSGSGTDFTLKISRMEAEDVGVYYCMQRTHWPPTFGQGTKVEIKR
# notes: as for B1
# Target: T1, commercial recombinant human BCMA …
# Assay: ELISA, BCMA-Fc (CS79) coated on plate, hybridoma supernatant diluted 1:50, anti-mouse IgG-HRP
# Protocol: Dilute BCMA antigen (Novoprotein cat: CS79) with PBS to 0.5 ng/μl; add 100 μl/well of antigen to a 96-well flat-bottom ELISA plate (Maxisorp), seal with cling film, and store at 4° C. overnight; pour off the antigen the next day. After that, wash with PBS (200 μl/well), pour off the PBS, pat dry on absorbent paper and add 200 μl of blocking solution to each well and block at room temperature for 2 hours. After blocking, pour off the blocking solution and pat dry on absorbent paper; add 50 μl of HRP-conjugated goat anti-mouse IgG secondary antibody diluted in diluent, place at room temperature for 1 hour, then pour off the liquid and wash 5 times with washing solution (200 μl/well), finally pour off the washing solution and pat dry on absorbent paper; add 50 μl/well of TMB-hydrogen peroxide urea solution substrate solution and place it at room temperature for 3-5 minutes, add 50 μl/well of 0.25M sulfuric acid to stop the reaction, the optical density was measured by obtaining the absorbance with a 450 nm filter under a multifunctional microplate reader.
row,Binder,OD450
1,B1,2.4
2,B2,2.12
3,B3,2.86
4,B4,2.59
5,B5,2.3
6,B6,2.2
7,B7,2.49
8,B8,2.71
9,B9,2.55
10,B10,3

# Target: T2, human BCMA antigen (6His tag, product …)
# Assay: SPR, Biacore T200, BCMA-6His on chip, antibody as analyte
# From the text: Example 8: Affinity Analysis of Anti-Human BCMA Monoclonal Antibody Binding to Human BCMA The kit, consumables and instruments used in this example were purchased from GE Healthcare; According to the instructions provided, human BCMA antigen (6His tag, product number CC28, Novoprotein) is conjugated to the chip surface, and then HBS-EP+ buffer solution is double-diluted to prepare different concentrations of the antibody to be analyzed, and meanwhile set the 0 concentration point and the quality control concentration point; According to the manufacturer's standard setting procedure of Biacore T200, the flow cell that captures ligand is used as the detection channel, the flow cell of un-captured ligand as the reference channel, and the HBS-EP+ buffer solution as the mobile phase, and different concentrations of the antibody solution to be analyzed are injected respectively; The SPR signal is collected by the Biacore T200 Control software, and then the data is processed by the Biacore T200 Evaluation analysis software; Finally, the Ka, Kd and KD values are calculated for the kinetic analysis or steady-state analysis of the obtained kinetic curves, and the results are shown in Table. 2.
Binder,Kd [nM],koff [s⁻¹],kon [M⁻¹ s⁻¹]
B1,0.0477,2.43e-05,510000
B2,0.125,6.02e-05,480000
B3,0.146,7.01e-05,481000
B4,0.0117,7.22e-05,6.18e+06
B5,0.0504,2.57e-05,510000
B6,0.0409,2.34e-05,573000
B7,0.0885,4.28e-05,483000
B8,0.0345,1.63e-05,472000
B9,0.253,0.000269,1.06e+06
B11,0.0656,5.29e-05,807000
B10,0.0483,2.78e-05,576000
